Each block holds one binder with its values, some of them ahead of it.
Assays:
[1] = target: T1, hPD-1 mIg fusion protein (human; mouse, UniProt Q15116 25-170); experiment: SPR Biacore T200, hPD-1 mIg immobilised at low level, antibody as analyte; reference pembrolizumab and nivolumab
T1 construct: extracellular domain; not shown: CH2-CH3 domain of mouse IgG2a heavy chain (plasmid pmIgG)
Description: Antibody binding affinity and kinetics: The affinity and kinetics of theTY101 was analyzed using the Biacore T200 instrument (GE Healthcare Life Sciences) and compared with two commercial antibodies.

[2] = target: T2, human PD-1 on cells (human, UniProt Q15116 25-288); experiment: cell-based or functional assay
[3] = target: T1, hPD-1 mIg fusion protein; experiment: SPR Biacore T100, hPD-1mIg immobilised by amine coupling, antibody as analyte
Description: Binding affinity and kinetics determination of the humanized antibodies: The binding affinity and kinetics of the humanized PD-1 mAbs interact with hPD-1 protein was assessed with Biacore T100 (GE Healthcare Life Sciences). […] Nine different concentrations were tested for each sample. Detailed binding kinetic parameters (association rate, Ka, dissociation rate, Kd, and affinity constant, KD) can be determined by full kinetic analysis.

[4] = target: T3, Human PD-1 ECD protein (human, UniProt Q15116 25-170); experiment: SPR, Biacore T200, hPD-1 ECD immobilised at the low level (60 RU), antibody as analyte, 1:1 fit [lower left]
T3 construct: extracellular domain; also called hPD-1; recombinant hPD-1
Description: (§1) Human PD-1 ECD protein was immobilized on CMS sensor chip for different length of time to achieve low immobilization level (at 60 RU) in flow cell 3 and high immobilization level (960 RU) in flow cell 4. […] After signals of both the reference (flow cell 1) and the zero concentrations being subtracted from that of samples, binding kinetics was calculated using Biacore T200 evaluation software version 1.0 and a 1:1 binding model for curve fitting.

[5] = target: T3, Human PD-1 ECD protein; experiment: SPR, Biacore T200, hPD-1 ECD immobilised at the high level (960 RU), antibody as analyte, 1:1 fit; kd and KD printed as '*', no visible dissociation over 1500 s [lower right]
Description: as §1

[6] = target: T4, Biotin-hPD-1 (human, UniProt Q15116 25-167, limits assumed, biotin label, site not stated); experiment: competitive ELISA: competitive Ab 15 µg/ml with Biotin-hPD-1; coating Ab TY101-01-09 1 µg/ml
Description: (§2) A serial dilution of competing antibodies and Biotin-hPD-1 were added to ELISA plates pre-coated with 1 μg/ml a test antibody. HRP conjugated streptavidin was then added, followed by the addition of substrate TMB and quantification with a SpectraMax Plus 384 Microplate Reader at 450 nm wavelength.

[7] = target: T5, mPD-1 protein (ELISA coat) (mouse, UniProt Q02242 25-167, limits assumed); experiment: ELISA against mPD-1 ECD-Fc protein (plate coat)
T5 sequence (looked up): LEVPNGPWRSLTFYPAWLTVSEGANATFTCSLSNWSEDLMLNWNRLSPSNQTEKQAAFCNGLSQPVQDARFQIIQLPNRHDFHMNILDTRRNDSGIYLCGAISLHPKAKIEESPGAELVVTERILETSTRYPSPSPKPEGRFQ
Description: (§3) The bindings of the antibodies to hPD-1 and the cross-reactivity to mPD-1 proteins were tested by ELISA. A serial dilution of test antibodies were added to ELISA plates pre-coated with 1 μg/ml hPD-1 or mPD-1. HRP conjugated goat anti-human IgG or goat anti-mouse IgG antibody was then added, followed by the addition of substrate Tetramethylbenzidine (TMB) and quantification with a SpectraMax Plus 384 Microplate Reader (Molecular Device, LLC., Sunnyvale, Calif.) at 450 nm wavelength.

[8] = target: T2, human PD-1 on cells; experiment: cell based RBA (flow cytometry): blocking of Biotin-hPD-L2 binding to CHOK1-hPD-1 cells
Description: (§4) The cells were then incubated with Alexa 488 labeled Streptavidin and analyzed using a FACSCanto II.

[9] = target: T4, Biotin-hPD-1; experiment: competitive ELISA: competitive Ab 15 µg/ml with Biotin-hPD-1; coating Ab TY101-04-T3-05 1 µg/ml
Description: as §2

[10] = target: T2, human PD-1 on cells; experiment: flow cytometry on CHOK1-hPD-1 cells
[11] = target: T6, cynomolgus monkey PD-1 on cells (cynomolgus monkey, UniProt B0LAJ3 25-288); experiment: flow cytometry on CHOK1-cPD-1 cells
T6 construct: also called cPD-1; CHOK1-cPD-1

[12] = target: hPD-1 protein (ELISA coat) (human, UniProt Q15116 25-167, limits assumed); experiment: ELISA against hPD-1 ECD-Fc protein (plate coat)
Description: as §3

[13] = target: T2, human PD-1 on cells; experiment: cell based RBA (flow cytometry): blocking of Biotin-hPD-L1 binding to CHOK1-hPD-1 cells
Description: as §4

[14] = target: T4, Biotin-hPD-1; experiment: competitive ELISA: competitive Ab 15 µg/ml with Biotin-hPD-1; coating Ab Pembrolizumab 1 µg/ml
Description: as §2

[15] = target: T4, Biotin-hPD-1; experiment: competitive ELISA: competitive Ab 15 µg/ml with Biotin-hPD-1; coating Ab Nivolumab 1 µg/ml
Description: as §2

[16] = target: T4, Biotin-hPD-1; experiment: competitive ELISA: competitive Ab 15 µg/ml with Biotin-hPD-1; coating Ab TY101-4G1 1 µg/ml
Description: as §2

[17] = target: T2, human PD-1 on cells; experiment: flow cytometry on CHO/hPD-1 cells, anti-mIgG-APC
Description: CHO/hPD-1 cells were incubated anti-PD-1 mAbs on ice. After incubation, the cells were washed and further incubated with anti-mIgG-APC (eBiosciences). Flow cytometry analysis was performed using a FACSVerse (BD Biosciences). […] These cells were also stained with their respective positive antibodies respectively as positive control.

T4 sequence (Q15116 25-167 limits assumed): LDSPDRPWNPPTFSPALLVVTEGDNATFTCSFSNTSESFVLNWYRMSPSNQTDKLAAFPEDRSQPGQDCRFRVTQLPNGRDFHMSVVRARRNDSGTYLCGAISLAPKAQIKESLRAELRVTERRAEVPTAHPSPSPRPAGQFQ
T2 sequence (Q15116 25-288): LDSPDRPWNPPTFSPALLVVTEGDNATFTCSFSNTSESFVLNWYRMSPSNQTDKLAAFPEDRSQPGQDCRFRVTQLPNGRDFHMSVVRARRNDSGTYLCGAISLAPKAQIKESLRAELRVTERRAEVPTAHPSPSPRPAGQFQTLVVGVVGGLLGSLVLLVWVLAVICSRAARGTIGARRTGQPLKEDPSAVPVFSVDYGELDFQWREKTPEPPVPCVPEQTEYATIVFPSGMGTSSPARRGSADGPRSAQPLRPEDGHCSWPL
T3 sequence (Q15116 25-170): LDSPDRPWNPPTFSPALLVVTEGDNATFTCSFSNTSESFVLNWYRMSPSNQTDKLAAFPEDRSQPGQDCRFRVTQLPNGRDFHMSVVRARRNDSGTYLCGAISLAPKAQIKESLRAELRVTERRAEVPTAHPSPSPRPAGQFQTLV
T1 sequence (Q15116 25-170): as above
T6 sequence (B0LAJ3 entry or part of it limits assumed): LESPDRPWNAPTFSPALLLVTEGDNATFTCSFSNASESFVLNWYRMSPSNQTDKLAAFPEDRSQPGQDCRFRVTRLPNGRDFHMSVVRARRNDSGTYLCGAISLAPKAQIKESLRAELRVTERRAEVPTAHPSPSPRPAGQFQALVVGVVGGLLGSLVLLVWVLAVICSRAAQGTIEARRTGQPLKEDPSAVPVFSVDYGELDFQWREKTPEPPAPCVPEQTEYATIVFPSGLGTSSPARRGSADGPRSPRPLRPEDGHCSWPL
hPD-1 protein (ELISA coat), sequence (Q15116 25-167 limits assumed): as the sequence (Q15116 25-167 limits assumed) above

fold slower dissociation rate Kd than the two commercial antibodies [1]: 10 fold
EC50; luciferase RLU of Jurkat-PD1 cells stimulated with CHO-PD-L1 cells (PD-1/PD-L1 Blockade Bioassay) [2]: 0.224 µg/mL
Kd [3]: 96.3 pM
koff [3]: 2.33e-05 s⁻¹
kon [3]: 242000 M⁻¹ s⁻¹
B1: Variant 3 (TY101) (antibody, V domains shown)
VH: EVQLVESGGGLVQPGGSLRLSCAASGFTFSSYTMSWVRQAPGKGLEWVSYISHGGGDTYYADSVKGRFTISRDNSKNTLYLQMNSLRAEDTAVYYCARHSGYERGYYYVMDYWGQGTLVTVSS
VL: DIQLTQSPDSLSVSLGERATINCKASESVDYYGFSFLNWFQQKPGQPPKLLIYAASNRQSGVPDRFSGSGSGTDFTLTISSLQAEDVAVYFCQQSKEVPWTFGQGTKLEIKR
notes: Humanized; VH variant a, VK variant c; Constant regions not spelled out; chimeric parent has human IgG4-S228P and human kappa; also called mutant combination 3

Kd [4]: 132 pM
koff [4]: 1.89e-05 s⁻¹
kon [4]: 143000 M⁻¹ s⁻¹
kon [5]: 210000 M⁻¹ s⁻¹
Inhibition (%) [6]: 94%
Max OD450 [7]: 0.92
binding result [7]: no binding (tested: 100 nM)
IC50 [8]: 1520 pM
Inhibition rate [8]: 95.3%
Inhibition (%) [9]: 95%
EC50 [10]: 870 pM
Max MFI [10]: 23900
EC50 [11]: 1190 pM
Max MFI [11]: 22100
EC50 [12]: 140 pM
Max OD450 [12]: 3.03
IC50 [13]: 1300 pM
Inhibition rate [13]: 99.5%
Inhibition (%) [14]: 94%
Inhibition (%) [15]: 94%
Inhibition (%) [16]: 95%
B2: TY101-04-T3-05 (antibody, V domains shown)
VH: EVQLVESGGGLVQPGGSLRLSCAASGFTFSSYTMSWVRQAPGKGLEWVSYISHGGGDTYYADSVKGRFTISRDNSKNTLYLQMNSLRAEDTAVYYCARHSGYERGYYYVMDYWGQGTLVTVSS
VL: DIQLTQSPDSLSVSLGERATINCKASESVDYYGFSFLNWFQQKPGQPPKLLIYAASNRQSGVPDRFSGSGSGTDFTLTISSLQAEDVAVYFCQQSKEVPWTFGQGTKLEIKR
notes: also called TY101 clone TY101-04-T3-05

binding result [17]: binds
B3: Murine Ab2 (antibody, mouse IgG1, V domains shown)
VH: QVQLQQSGAELARPGASVKMSCKASGYTFTSYTMHWVKQRPGQGLEWIGYINPTTGYTNYNQKFKDKATLTADKSSSTAYMQLSSLTSEDSAVYYCARDDAYYSGYWGQGTTLTVSS
VL: DIQMTQSPASLSVSVGETVTITCRASENIYSNLAWYRQKQGKSPQLLVYAAKNLADGVPSRFSGSGSGTQYSLKINSLQSEDFGSYYCQHFWGTPWTFGGGTKLEIKR
notes: also called anti-hPD-1 mAb 2
